Results on 2 molecules are retold here after paper PMC9045250.

This assay deals with no. 14 short peptide of the CD2V extracellular region (147-161) (African swine fever virus (China/2018/AnhuiXCGQ)). The experiment in a line: ELISA. To be noted: remark: other sources report otherwise. For orientation: ELISA stands for enzyme-linked immunosorbent assay.

A value given as a limit tells only on which side of the number the result lay.

B1: monoclonal antibody 18A3 against CD2V (antibody, V domains shown)
VH: MVKPGASVKISCKASGYSFTSYYIHWVKQRPGQGLEWIGWIFPGSGNTKYNEKFKGKATLTADTSSSTAYMQLSSLTSEDSAVYFCAQTGRVFAYWGQGTTVTVSSK
VL: MTQSPSSLSASLGERVSLTCRASQEISGYLSWLQQKPDGTIKRLIYAASTLDSGVPKRFSGSRSGSDYSLTISSLESEDFADYYCLQYASYPWTFGGGTKLESNGE
In turn, B1 showed an OD450 greater than 1 OD450.

B2: monoclonal antibody 13G11 against CD2V (antibody, V domains shown)
VH: MIMVQSQESGPDLVKPSQSLSLTCTVTGYSITSGYSWHWIRQFPGNKLEWMGYIHYSGVTNYNPSLKSRISITRDTSKNQFFLQLNSVTTEDTATYYCARAPLYYGNYVWFSYWGQGTTVTVSSK
VL: MTCDIELTQSPASLSASVGETVTITCRASGNIHNYLAWYQQKQGKSPQLLVYNAKTLADGVPSRFSGSGSGSQYSLKINSLQPEDFGSYYCQHFWSTPWTFGGGTKLENQTDK
With B2, the OD450 was greater than 1 OD450.
